Earlier results as cited in US20180369330A1, “METHODS AND COMPOSITIONS USING INTEGRIN-BASED THERAPEUTICS” (La Jolla Institute for Allergy and Immunology, priority 2016, published 2018).

How the values were obtained:
[1] = patients, clinical trials or clinical use
[2] = molecular target: T1, αVβ3 (Homo sapiens, UniProt P05106+P06756); details: patients with glioblastoma
T1 construct: host or cells: patients with glioblastoma (cited trials)
T1 sequence (P06756 31-889 limits assumed): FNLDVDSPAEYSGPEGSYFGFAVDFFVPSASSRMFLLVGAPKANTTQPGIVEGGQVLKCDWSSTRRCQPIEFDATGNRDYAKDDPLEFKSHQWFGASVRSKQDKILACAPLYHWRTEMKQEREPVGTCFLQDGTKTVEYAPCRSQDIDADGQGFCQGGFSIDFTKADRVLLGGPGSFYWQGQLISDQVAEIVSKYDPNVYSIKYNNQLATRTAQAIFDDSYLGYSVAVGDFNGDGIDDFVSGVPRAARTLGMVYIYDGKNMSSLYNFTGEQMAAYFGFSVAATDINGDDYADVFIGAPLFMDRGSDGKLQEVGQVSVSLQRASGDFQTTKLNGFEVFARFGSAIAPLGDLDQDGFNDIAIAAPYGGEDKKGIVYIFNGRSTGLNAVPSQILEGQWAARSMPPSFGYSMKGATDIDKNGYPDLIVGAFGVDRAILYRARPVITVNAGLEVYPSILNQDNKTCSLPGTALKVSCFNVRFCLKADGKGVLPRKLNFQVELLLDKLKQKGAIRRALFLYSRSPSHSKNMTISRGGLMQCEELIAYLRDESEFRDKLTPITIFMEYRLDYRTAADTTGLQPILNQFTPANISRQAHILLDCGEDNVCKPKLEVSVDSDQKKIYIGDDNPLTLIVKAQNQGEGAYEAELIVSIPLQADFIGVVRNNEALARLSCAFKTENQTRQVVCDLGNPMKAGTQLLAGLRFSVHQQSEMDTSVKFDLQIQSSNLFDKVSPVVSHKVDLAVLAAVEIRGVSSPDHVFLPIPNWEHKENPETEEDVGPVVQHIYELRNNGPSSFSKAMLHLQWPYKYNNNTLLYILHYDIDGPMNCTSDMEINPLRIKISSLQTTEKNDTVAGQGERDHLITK
T1 sequence (P06756 891-1048 limits assumed): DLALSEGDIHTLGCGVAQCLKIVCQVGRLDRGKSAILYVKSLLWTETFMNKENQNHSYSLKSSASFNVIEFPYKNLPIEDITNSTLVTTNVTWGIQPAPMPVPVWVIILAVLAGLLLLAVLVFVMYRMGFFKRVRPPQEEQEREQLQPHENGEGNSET
T1 sequence (P05106 27-788): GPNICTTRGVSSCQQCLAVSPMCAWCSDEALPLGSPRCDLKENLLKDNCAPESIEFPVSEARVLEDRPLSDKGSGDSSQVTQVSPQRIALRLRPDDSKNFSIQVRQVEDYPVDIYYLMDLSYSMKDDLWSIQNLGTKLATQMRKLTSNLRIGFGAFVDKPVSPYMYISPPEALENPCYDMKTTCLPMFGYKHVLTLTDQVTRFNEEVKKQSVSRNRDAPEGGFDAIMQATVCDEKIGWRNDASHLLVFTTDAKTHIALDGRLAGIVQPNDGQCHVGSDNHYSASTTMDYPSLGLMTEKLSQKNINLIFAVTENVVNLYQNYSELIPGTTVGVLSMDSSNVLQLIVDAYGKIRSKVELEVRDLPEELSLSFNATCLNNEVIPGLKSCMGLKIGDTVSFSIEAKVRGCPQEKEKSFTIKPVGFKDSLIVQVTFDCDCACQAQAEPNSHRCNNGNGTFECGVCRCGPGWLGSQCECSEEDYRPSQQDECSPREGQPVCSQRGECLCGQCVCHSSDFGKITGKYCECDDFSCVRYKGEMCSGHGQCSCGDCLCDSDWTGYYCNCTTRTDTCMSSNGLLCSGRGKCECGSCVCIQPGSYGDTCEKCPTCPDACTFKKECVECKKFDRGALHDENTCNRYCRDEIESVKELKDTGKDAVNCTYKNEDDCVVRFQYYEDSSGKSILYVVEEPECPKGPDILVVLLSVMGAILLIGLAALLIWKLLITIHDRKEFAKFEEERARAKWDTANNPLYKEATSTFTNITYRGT

efficacy in limiting tumor angiogenesis and progression [2]	Compound	progressive multifocal leukoencephalopathy [1]
–	Natalizumab: antibody targeting lymphocyte α4β1 and α4β7 integrins	rare but serious complication
has not shown efficacy	CC(C)[C@H]1C(=O)N[C@@H](CCCN=C(N)N)C(=O)NCC(=O)N[C@@H](CC(=O)O)C(=O)N[C@H](Cc2ccccc2)C(=O)N1C [Cilengitide]	–
–	vedolizumab: antibody to a combinatorial epitope in α4β7	has not been observed
